B1: ANKRD40 (parent)
chain: VRIQNPSLRENDFIEIELDRQELT

Variants of: B1
Test: protein stability index of a GFP-peptide fusion (GPS, HEK-293T) (PSI 1-6); higher = more stable
Settings: c terminus: a fixed tail appended
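Further: lentivirally expressed fusions sorted by FACS into six bins by GFP to DsRed ratio, PSI derived from sequencing read proportions per bin multiplied by bin number.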

| Variant | protein stability index |
| --- | --- |
| VRIQNPSLRYNDFIEIELDRQELT | 1.51 |
| VRIQNPSLREADFIEIELDRQELT | 2.18 |
| VRIQNPSLRECDFIEIELDRQELT | 1.69 |
| VRIQNPSLREDDFIEIELDRQELT | 2.08 |
| VRIQNPSLREEDFIEIELDRQELT | 1.79 |
| VRIQNPSLREFDFIEIELDRQELT | 1.69 |
| VRIQNPSLREGDFIEIELDRQELT | 2.32 |
| VRIQNPSLREHDFIEIELDRQELT | 2.39 |
| VRIQNPSLREIDFIEIELDRQELT | 1.94 |
| VRIQNPSLREKDFIEIELDRQELT | 2.94 |
| VRIQNPSLRELDFIEIELDRQELT | 1.7 |
| VRIQNPSLREMDFIEIELDRQELT | 1.99 |
| VRIQNPSLREPDFIEIELDRQELT | 2.73 |
| VRIQNPSLREQDFIEIELDRQELT | 2.54 |
| VRIQNPSLRERDFIEIELDRQELT | 2.63 |
| VRIQNPSLRESDFIEIELDRQELT | 2.58 |
| VRIQNPSLRETDFIEIELDRQELT | 2.47 |
| VRIQNPSLREVDFIEIELDRQELT | 1.97 |
| VRIQNPSLREWDFIEIELDRQELT | 1.41 |
| VRIQNPSLREYDFIEIELDRQELT | 1.71 |
| VRIQNPSLRENAFIEIELDRQELT | 1.81 |
| VRIQNPSLRENCFIEIELDRQELT | 2.46 |
| VRIQNPSLRENEFIEIELDRQELT | 2.29 |
| VRIQNPSLRENFFIEIELDRQELT | 2.14 |

| Variant | protein stability index |
| --- | --- |
| VRIQNPSLRENGFIEIELDRQELT | 1.68 |
| VRIQNPSLRENHFIEIELDRQELT | 2.11 |
| VRIQNPSLRENIFIEIELDRQELT | 2.08 |
| VRIQNPSLRENKFIEIELDRQELT | 2.61 |
| VRIQNPSLRENLFIEIELDRQELT | 2.01 |
| VRIQNPSLRENMFIEIELDRQELT | 3.11 |
| VRIQNPSLRENNFIEIELDRQELT | 2.64 |
| VRIQNPSLRENPFIEIELDRQELT | 2.58 |
| VRIQNPSLRENQFIEIELDRQELT | 2.1 |
| VRIQNPSLRENRFIEIELDRQELT | 2.97 |
| VRIQNPSLRENSFIEIELDRQELT | 1.83 |
| VRIQNPSLRENTFIEIELDRQELT | 1.66 |
| VRIQNPSLRENVFIEIELDRQELT | 2.2 |
| VRIQNPSLRENWFIEIELDRQELT | 2.37 |
| VRIQNPSLRENYFIEIELDRQELT | 1.06 |
| VRIQNPSLRENDAIEIELDRQELT | 3.81 |
| VRIQNPSLRENDCIEIELDRQELT | 3.15 |
| VRIQNPSLRENDDIEIELDRQELT | 4.61 |
| VRIQNPSLRENDEIEIELDRQELT | 4.6 |
| VRIQNPSLRENDGIEIELDRQELT | 4.11 |
| VRIQNPSLRENDHIEIELDRQELT | 4.08 |
| VRIQNPSLRENDIIEIELDRQELT | 2.36 |
| VRIQNPSLRENDKIEIELDRQELT | 3.72 |
| VRIQNPSLRENDLIEIELDRQELT | 3.42 |

| Variant | protein stability index |
| --- | --- |
| VRIQNPSLRENDMIEIELDRQELT | 3.21 |
| VRIQNPSLRENDNIEIELDRQELT | 4.18 |
| VRIQNPSLRENDPIEIELDRQELT | 4.53 |
| VRIQNPSLRENDQIEIELDRQELT | 4.32 |
| VRIQNPSLRENDRIEIELDRQELT | 3.43 |
| VRIQNPSLRENDSIEIELDRQELT | 4.39 |
| VRIQNPSLRENDTIEIELDRQELT | 3.76 |
| VRIQNPSLRENDVIEIELDRQELT | 3.41 |
| VRIQNPSLRENDWIEIELDRQELT | 2.44 |
| VRIQNPSLRENDYIEIELDRQELT | 2.42 |
| VRIQNPSLRENDFAEIELDRQELT | 4 |
| VRIQNPSLRENDFCEIELDRQELT | 3.43 |
| VRIQNPSLRENDFDEIELDRQELT | 5.22 |
| VRIQNPSLRENDFEEIELDRQELT | 4.92 |
| VRIQNPSLRENDFFEIELDRQELT | 2.87 |
| VRIQNPSLRENDFGEIELDRQELT | 3.87 |
| VRIQNPSLRENDFHEIELDRQELT | 4.66 |
| VRIQNPSLRENDFKEIELDRQELT | 4.47 |
| VRIQNPSLRENDFLEIELDRQELT | 3 |
| VRIQNPSLRENDFMEIELDRQELT | 3.34 |
| VRIQNPSLRENDFNEIELDRQELT | 4.85 |
| VRIQNPSLRENDFPEIELDRQELT | 4.27 |
| VRIQNPSLRENDFQEIELDRQELT | 4.31 |
| VRIQNPSLRENDFREIELDRQELT | 4.34 |

| Variant | protein stability index |
| --- | --- |
| VRIQNPSLRENDFSEIELDRQELT | 4.42 |
| VRIQNPSLRENDFTEIELDRQELT | 3.88 |
| VRIQNPSLRENDFVEIELDRQELT | 3.1 |
| VRIQNPSLRENDFWEIELDRQELT | 2.49 |
| VRIQNPSLRENDFYEIELDRQELT | 3.73 |
| VRIQNPSLRENDFIAIELDRQELT | 2.38 |
| VRIQNPSLRENDFICIELDRQELT | 1.87 |
| VRIQNPSLRENDFIDIELDRQELT | 2.95 |
| VRIQNPSLRENDFIFIELDRQELT | 1.82 |
| VRIQNPSLRENDFIGIELDRQELT | 3.02 |
| VRIQNPSLRENDFIHIELDRQELT | 2.94 |
| VRIQNPSLRENDFIIIELDRQELT | 2.45 |
| VRIQNPSLRENDFIKIELDRQELT | 2.47 |
| VRIQNPSLRENDFILIELDRQELT | 2.25 |
| VRIQNPSLRENDFIMIELDRQELT | 1.95 |
| VRIQNPSLRENDFINIELDRQELT | 3.29 |
| VRIQNPSLRENDFIPIELDRQELT | 3.49 |
| VRIQNPSLRENDFIQIELDRQELT | 2.18 |
| VRIQNPSLRENDFIRIELDRQELT | 2.13 |
| VRIQNPSLRENDFISIELDRQELT | 2.02 |
| VRIQNPSLRENDFITIELDRQELT | 2.27 |
| VRIQNPSLRENDFIVIELDRQELT | 1.89 |
